“And” between values parts separate entries of the source, which are not always exact repeats. Equal values may be shown once.
Key:
cynomolgus CD16 [1] = target: T1, cynomolgus CD16 (cynomolgus, UniProt Q8SPW2 17-208, limits assumed); assay: SPR
T1 construct: also called Cyno CD16; cynomolgus FcγRIII

human CD16a F158 [2] = target: T2, human CD16a F158 (human, UniProt P08637 17-208); assay: SPR, steady state
[3] = target: T3, human BAFF-R expressed on cells (human, UniProt Q96RJ3 1-184); assay: flow cytometry, BJAB cells, control
T3 construct: Cell surface BAFF-R, endogenous on B cell lines and primary B cells or overexpressed on isogenic CHO cells; also called hBAFF-R; hBAFF-R-CHO

human CD16a V158 [4] = target: T4, human CD16a V158 (human, UniProt P08637 17-208); assay: SPR, after 4 weeks at 40 °C
T4 construct: also called hCD16aV; hCD16a V158
T4 sequence (P08637 17-208 F176V limits assumed): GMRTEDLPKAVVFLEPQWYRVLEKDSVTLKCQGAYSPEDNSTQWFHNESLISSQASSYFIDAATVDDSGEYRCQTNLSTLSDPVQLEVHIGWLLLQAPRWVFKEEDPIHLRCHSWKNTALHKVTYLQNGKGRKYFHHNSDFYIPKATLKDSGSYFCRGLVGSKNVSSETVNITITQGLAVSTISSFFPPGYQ

[5] = target: T5, human NKG2D (recombinant mFc-tagged dimer) (human, UniProt P26718 78-216); assay: SPR, after 4 weeks at 40 °C
T5 construct: also called hNKG2D
T5 sequence (looked up): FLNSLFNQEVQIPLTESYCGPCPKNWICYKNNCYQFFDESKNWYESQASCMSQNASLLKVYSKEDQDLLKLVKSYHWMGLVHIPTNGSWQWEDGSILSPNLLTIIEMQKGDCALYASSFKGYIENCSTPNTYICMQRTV

[6] = target: T5, human NKG2D (recombinant mFc-tagged …); assay: SPR, kinetic fit, control
[7] = target: T3, human BAFF-R expressed on cells; assay: cell-based or functional assay
human CD32a H131 [8] = target: T6, human CD32a H131 (human, UniProt P12318 36-218, limits assumed); assay: SPR, steady state, average
T6 sequence (looked up): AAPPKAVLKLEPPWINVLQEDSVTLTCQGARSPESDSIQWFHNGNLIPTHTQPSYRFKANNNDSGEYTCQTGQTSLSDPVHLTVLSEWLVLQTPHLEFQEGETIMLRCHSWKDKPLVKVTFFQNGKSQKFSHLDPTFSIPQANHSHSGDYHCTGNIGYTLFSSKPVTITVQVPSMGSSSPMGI

human CD16b [9] = target: T7, human CD16b (human, UniProt O75015 17-200, limits assumed); assay: SPR, summary table
T7 construct: also called FcγRIIIb
T7 sequence (O75015 17-200 limits assumed): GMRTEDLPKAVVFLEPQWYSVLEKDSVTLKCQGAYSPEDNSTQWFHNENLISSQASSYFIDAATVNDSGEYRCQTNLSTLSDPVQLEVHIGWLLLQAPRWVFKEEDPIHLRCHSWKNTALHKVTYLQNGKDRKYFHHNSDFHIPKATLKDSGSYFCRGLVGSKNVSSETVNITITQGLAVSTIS

cynomolgus CD16 [10] = target: T1, cynomolgus CD16; assay: SPR, summary table
human CD16a F158 [11] = target: T2, human CD16a F158; assay: SPR, summary table
human CD64 = target: T8, human CD64 (human, UniProt P12314 16-288, limits assumed); assay: SPR, summary table
T8 construct: also called FcγRI
T8 sequence (P12314 16-288 limits assumed): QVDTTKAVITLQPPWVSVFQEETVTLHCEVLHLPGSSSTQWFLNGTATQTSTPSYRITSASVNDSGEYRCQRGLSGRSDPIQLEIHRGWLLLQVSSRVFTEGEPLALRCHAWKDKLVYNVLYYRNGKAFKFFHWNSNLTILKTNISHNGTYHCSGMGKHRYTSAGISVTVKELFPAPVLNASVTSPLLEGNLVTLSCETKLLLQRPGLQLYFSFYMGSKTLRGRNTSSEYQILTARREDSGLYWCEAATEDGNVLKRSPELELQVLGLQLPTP

human CD16a V158 [12] = target: T4, human CD16a V158; assay: SPR, summary table
human CD32b = target: T9, human CD32b (human, UniProt P31994 46-217, limits assumed); assay: SPR, summary table
T9 construct: also called FcγRIIb
T9 sequence (looked up): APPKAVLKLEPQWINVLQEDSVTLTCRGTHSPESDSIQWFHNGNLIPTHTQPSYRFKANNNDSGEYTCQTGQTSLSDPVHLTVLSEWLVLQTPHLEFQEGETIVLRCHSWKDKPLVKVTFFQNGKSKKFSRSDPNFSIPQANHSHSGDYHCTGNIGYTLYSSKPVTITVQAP

human CD32a R131 = target: T10, human CD32a R131 (human, UniProt P12318 36-218, limits assumed); assay: SPR, summary table
T10 construct: also called FcγRIIa R131
T10 sequence (looked up): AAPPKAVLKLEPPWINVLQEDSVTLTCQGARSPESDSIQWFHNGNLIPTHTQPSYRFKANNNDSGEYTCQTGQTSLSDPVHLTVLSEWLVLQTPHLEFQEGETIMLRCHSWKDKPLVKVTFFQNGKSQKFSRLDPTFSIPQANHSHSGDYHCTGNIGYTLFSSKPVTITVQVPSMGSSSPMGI

human CD32a H131 [13] = target: T6, human CD32a H131; assay: SPR, summary table
human CD16a V158 [14] = target: T4, human CD16a V158; assay: SPR, control
human CD16a V158 [15] = target: T4, human CD16a V158; assay: SPR, average
human CD16b [16] = target: T7, human CD16b; assay: SPR, steady state, average
[17] = target: T5, human NKG2D (recombinant mFc-tagged …); assay: SPR, steady state fit
Text: (§1) NKG2D is a native dimer, therefore recombinant mFc-tagged NKG2D dimer was used for this experiment. Two different fits were utilized to obtain the equilibrium affinity data: steady state affinity fit and kinetic fit.

[18] = target: T11, cynomolgus NKG2D (recombinant mFc-tagged dimer) (cynomolgus, UniProt P61252 78-216); assay: SPR, steady state fit
T11 construct: also called cyno NKG2D
T11 sequence (looked up): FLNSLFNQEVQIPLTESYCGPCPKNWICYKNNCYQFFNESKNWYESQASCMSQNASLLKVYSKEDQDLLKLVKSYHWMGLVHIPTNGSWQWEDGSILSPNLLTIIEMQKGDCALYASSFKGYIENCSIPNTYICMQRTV
Text: as §1

[19] = target: T3, human BAFF-R expressed on cells; assay: blocking of BAFF-biotin on hBAFF-R CHO cells
[20] = target: T3, human BAFF-R expressed on cells; assay: flow cytometry, RL cells
human CD32a H131 [21] = target: T6, human CD32a H131; assay: SPR, steady state

T2 sequence (P08637 17-208 limits assumed): as the sequence (P08637 17-208 F176V limits assumed) above, with V160F counted along it
T1 sequence (Q8SPW2 17-208 limits assumed): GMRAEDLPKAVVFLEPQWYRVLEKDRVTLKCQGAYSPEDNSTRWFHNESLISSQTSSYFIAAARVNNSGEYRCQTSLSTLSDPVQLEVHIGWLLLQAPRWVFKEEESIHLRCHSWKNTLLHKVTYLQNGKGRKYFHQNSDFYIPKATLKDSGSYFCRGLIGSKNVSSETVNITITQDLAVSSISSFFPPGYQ

B1: AB1424/AB1612 F3′ TriNKET (bispecific antibody, human IgG1, kappa)
chain: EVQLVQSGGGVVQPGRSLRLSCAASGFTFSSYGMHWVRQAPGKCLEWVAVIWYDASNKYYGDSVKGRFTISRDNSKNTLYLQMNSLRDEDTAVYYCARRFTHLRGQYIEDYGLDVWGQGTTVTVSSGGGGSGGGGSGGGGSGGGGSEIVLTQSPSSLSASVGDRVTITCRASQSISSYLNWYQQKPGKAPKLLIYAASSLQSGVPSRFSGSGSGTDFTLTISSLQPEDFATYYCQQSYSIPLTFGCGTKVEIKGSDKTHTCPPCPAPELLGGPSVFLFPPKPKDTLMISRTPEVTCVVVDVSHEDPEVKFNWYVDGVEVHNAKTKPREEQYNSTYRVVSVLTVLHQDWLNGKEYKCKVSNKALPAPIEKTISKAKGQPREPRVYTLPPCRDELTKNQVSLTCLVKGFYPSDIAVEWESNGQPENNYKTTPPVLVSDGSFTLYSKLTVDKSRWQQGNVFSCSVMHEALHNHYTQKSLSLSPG
heavy: EVQLVESGGGLVKPGGSLRLSCAASGFTFSSYSMNWVRQAPGKGLEWVSSISSSSSYIYYADSVKGRFTISRDNAKNSLYLQMNSLRAEDTAVYYCARGAPIGAAAGWFDPWGQGTLVTVSSASTKGPSVFPLAPSSKSTSGGTAALGCLVKDYFPEPVTVSWNSGALTSGVHTFPAVLQSSGLYSLSSVVTVPSSSLGTQTYICNVNHKPSNTKVDKKVEPKSCDKTHTCPPCPAPELLGGPSVFLFPPKPKDTLMISRTPEVTCVVVDVSHEDPEVKFNWYVDGVEVHNAKTKPREEQYNSTYRVVSVLTVLHQDWLNGKEYKCKVSNKALPAPIEKTISKAKGQPREPQVCTLPPSRDELTENQVSLTCLVKGFYPSDIAVEWESNGQPENNYKTTPPVLDSDGSFFLYSWLTVDKSRWQQGNVFSCSVMHEALHNHYTQKSLSLSPG
light: DIQMTQSPSSVSASVGDRVTITCRASQGISSWLAWYQQKPGKAPKLLIYAASSLQSGVPSRFSGSGSGTDFTLTISSLQPEDFATYYCQQGVSFPRTFGGGTKVEIKRTVAAPSVFIFPPSDEQLKSGTASVVCLLNNFYPREAKVQWKVDNALQSGNSQESVTEQDSKDSTYSLSSTLTLSKADYEKHKVYACEVTHQGLSSPVTKSFNRGEC
notes: Chain S: anti-BAFF-R scFv-CH2-CH3; chain H: anti-NKG2D VH-CH1-CH2-CH3; chain L: anti-NKG2D VL-CL; also called AB1612-002
koff (cynomolgus CD16 [1]): 0.02 s⁻¹ and 0.021 s⁻¹
kon (cynomolgus CD16 [1]): 78000 M⁻¹ s⁻¹ and 72000 M⁻¹ s⁻¹
Kd (human CD16a F158 [2]): 1330 nM and 1260 nM and 1370 nM and 1430 nM
EC50 [3]: 0.82 nM
Kd (human CD16a V158 [4]): 145 nM
koff (human CD16a V158 [4]): 0.016 s⁻¹
kon (human CD16a V158 [4]): 120000 M⁻¹ s⁻¹
koff [5]: 0.1 s⁻¹
kon [5]: 210000 M⁻¹ s⁻¹
Kd [6]: 503 nM
KHYG-1-CD16a cytotoxicity on BJAB cells, EC50 [7]: 0.03 nM
Kd (human CD32a H131 [8]): 1000 nM
Kd (human CD16b [9]): 6900 nM
Kd (cynomolgus CD16 [10]): 271 nM
Kd (human CD16a F158 [11]): 1350 nM
Kd (human CD64): 3.2 nM
Kd (human CD16a V158 [12]): 129 nM
Kd (human CD32b): 5900 nM
Kd (human CD32a R131): 1400 nM
Kd (human CD32a H131 [13]): 1000 nM
Kd (human CD16a V158 [14]): 145 nM
koff (human CD16a V158 [14]): 0.017 s⁻¹
kon (human CD16a V158 [14]): 130000 M⁻¹ s⁻¹
koff (human CD16a V158 [15]): 0.014 s⁻¹
kon (human CD16a V158 [15]): 110000 M⁻¹ s⁻¹
Kd (human CD16b [16]): 6900 nM
Kd [17]: 438 nM and 453 nM and 468 nM and 466 nM
Kd [18]: 501 nM and 516 nM and 535 nM and 530 nM
IC50 [19]: 6.76 nM
EC50 [20]: 0.27 nM
Max FOB [20]: 8 fold over background
Kd (human CD32a H131 [21]): 900 nM and 1100 nM and 1000 nM

Source: patent publication US20240360223A1 (DRAGONFLY THERAPEUTICS, published 2024)
